Results as given in patent US20170081412A1 (MITSUBISHI TANABE PHARMA, published 2017).

What was measured:
recombinant human IL-6R [1] = biological target: T1, recombinant human IL-6R (human, UniProt P08887 20-365); assay: SPR, binder captured by anti-human antibody on GLM chip, IL-6R as analyte; average of 4 experiments
T1 construct: The sandwich ELISA used a His-tagged form; also called soluble IL-6R; His-tagged human IL-6R
T1 sequence: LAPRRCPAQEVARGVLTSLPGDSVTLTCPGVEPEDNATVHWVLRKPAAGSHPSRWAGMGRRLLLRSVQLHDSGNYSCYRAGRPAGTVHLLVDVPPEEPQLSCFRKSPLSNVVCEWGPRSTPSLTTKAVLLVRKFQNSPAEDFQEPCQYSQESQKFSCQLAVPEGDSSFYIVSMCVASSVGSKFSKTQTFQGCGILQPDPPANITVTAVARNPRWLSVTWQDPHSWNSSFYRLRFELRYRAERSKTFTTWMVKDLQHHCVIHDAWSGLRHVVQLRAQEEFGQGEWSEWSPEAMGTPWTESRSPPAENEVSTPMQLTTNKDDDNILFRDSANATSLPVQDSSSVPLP
Excerpt: (§1) To determine the affinity and kinetic parameters of FynomAb binding to human IL-17A and human IL-6R, an anti-human antibody was amine coupled to a GLM chip.

recombinant human IL-17A = biological target: T2, recombinant human IL-17A (human, UniProt Q16552 24-155, limits assumed); assay: SPR: antibody captured on an amine-coupled anti-human antibody (GLM chip), recombinant human IL-17A flowed as analyte
T2 construct: In the flow cytometry assay it was biotinylated; also called soluble IL-17A
Excerpt: as §1

[2] = biological target: T3, human IL-6R on the surface of HEK Blue IL-6 cells (human, UniProt P08887 20-468); assay: flow cytometry: HEK-Blue IL-6 cells (IL-6R+), drug titrated about 0.005-300 nM, detected with anti-human IgG-Alexa488
T3 construct: HEK Blue IL-6 cells (Invivogen); also called cell surface IL-6R; HEK-Blue-IL6 cells (IL6R+)
T3 sequence: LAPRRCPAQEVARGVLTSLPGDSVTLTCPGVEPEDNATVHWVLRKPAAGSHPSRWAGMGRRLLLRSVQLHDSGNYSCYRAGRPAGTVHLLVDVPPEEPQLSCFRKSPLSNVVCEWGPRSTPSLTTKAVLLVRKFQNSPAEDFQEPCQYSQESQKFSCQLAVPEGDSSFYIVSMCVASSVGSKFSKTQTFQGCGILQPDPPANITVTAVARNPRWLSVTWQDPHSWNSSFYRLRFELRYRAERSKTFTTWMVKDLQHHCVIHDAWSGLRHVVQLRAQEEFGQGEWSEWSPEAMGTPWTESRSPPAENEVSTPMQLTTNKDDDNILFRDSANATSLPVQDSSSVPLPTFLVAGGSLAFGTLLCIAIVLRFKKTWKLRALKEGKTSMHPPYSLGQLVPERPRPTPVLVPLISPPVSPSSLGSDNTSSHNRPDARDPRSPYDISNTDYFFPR

recombinant human IL-6R [3] = biological target: T1, recombinant human IL-6R; assay: SPR, binder captured by anti-human antibody on GLM chip, IL-6R as analyte; average of 4 experiments; column head prints nM, value taken as M
Excerpt: as §1

recombinant human IL-6R [4] = biological target: T1, recombinant human IL-6R; assay: SPR (representative sensorgram with fit): antibody captured on an amine-coupled anti-human antibody (GLM chip), recombinant human IL-6R flowed as analyte
Excerpt: as §1

recombinant human IL-6R [5] = biological target: T1, recombinant human IL-6R; assay: as above; remark: listed apart in the source
Excerpt: as §1

recombinant human IL-6R [6] = biological target: T1, recombinant human IL-6R; assay: SPR, binder captured by anti-human antibody on GLM chip, IL-6R as analyte; average of 6 experiments
Excerpt: as §1

recombinant human IL-6R [7] = biological target: T1, recombinant human IL-6R; assay: SPR, binder captured by anti-human antibody on GLM chip, IL-6R as analyte; average of 6 experiments; column head prints nM, value taken as M
Excerpt: as §1

recombinant human IL-6R [8] = biological target: T1, recombinant human IL-6R; assay: SPR: antibody captured on an amine-coupled anti-human antibody (GLM chip), recombinant human IL-6R flowed as analyte
Excerpt: as §1

T2 sequence (Q16552 24-155 limits assumed): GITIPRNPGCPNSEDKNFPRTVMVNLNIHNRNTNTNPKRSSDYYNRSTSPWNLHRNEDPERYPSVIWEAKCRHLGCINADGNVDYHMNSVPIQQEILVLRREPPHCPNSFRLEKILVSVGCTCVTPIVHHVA

B1: tocilizumab (produced in house in CHO cells) (antibody, human IgG1, kappa)
heavy: not shown
light: not shown
notes: also called parental antibody
- koff (recombinant human IL-6R [1]): 0.000186 s⁻¹
- kon (recombinant human IL-6R [1]): 473000 M⁻¹ s⁻¹
- binding result (recombinant human IL-17A): no binding
- EC50 (read off the curve) [2]: ~1 nM
- Kd (recombinant human IL-6R [3]): 0.417 nM
- Kd (recombinant human IL-6R [4]): 0.467 nM
- koff (recombinant human IL-6R [4]): 0.000199 s⁻¹
- kon (recombinant human IL-6R [4]): 427000 M⁻¹ s⁻¹
- Kd (recombinant human IL-6R [5]): 0.41 nM
- koff (recombinant human IL-6R [5]): 0.000189 s⁻¹
- kon (recombinant human IL-6R [5]): 461000 M⁻¹ s⁻¹

B2: Actemra (commercial tocilizumab) (antibody, human IgG1, kappa)
heavy: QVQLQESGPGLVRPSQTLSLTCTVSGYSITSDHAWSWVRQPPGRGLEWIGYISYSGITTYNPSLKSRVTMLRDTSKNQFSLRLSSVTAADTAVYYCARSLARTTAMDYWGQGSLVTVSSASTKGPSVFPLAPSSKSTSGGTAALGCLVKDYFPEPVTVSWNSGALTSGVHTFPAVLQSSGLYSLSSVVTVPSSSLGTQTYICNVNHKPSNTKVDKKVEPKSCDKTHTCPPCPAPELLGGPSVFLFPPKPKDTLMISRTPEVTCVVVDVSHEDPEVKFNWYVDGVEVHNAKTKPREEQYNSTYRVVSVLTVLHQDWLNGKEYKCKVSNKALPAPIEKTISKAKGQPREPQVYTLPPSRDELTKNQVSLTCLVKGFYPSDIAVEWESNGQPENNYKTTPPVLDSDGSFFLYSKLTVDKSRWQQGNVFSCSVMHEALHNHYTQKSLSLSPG
light: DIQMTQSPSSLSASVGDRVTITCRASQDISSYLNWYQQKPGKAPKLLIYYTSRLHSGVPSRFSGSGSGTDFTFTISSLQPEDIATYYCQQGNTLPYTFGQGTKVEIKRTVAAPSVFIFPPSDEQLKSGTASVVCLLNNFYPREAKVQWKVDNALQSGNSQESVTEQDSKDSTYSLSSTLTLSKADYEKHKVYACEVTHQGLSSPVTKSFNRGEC
notes: also called commercial Actemra; commercial grade Actemra
- koff (recombinant human IL-6R [6]): 0.000191 s⁻¹
- kon (recombinant human IL-6R [6]): 413000 M⁻¹ s⁻¹
- binding result (recombinant human IL-17A): no binding
- Kd (recombinant human IL-6R [7]): 0.499 nM
- Kd (recombinant human IL-6R [4]): 0.467 nM
- koff (recombinant human IL-6R [4]): 0.000195 s⁻¹
- kon (recombinant human IL-6R [4]): 417000 M⁻¹ s⁻¹

B3: secukinumab (antibody, human IgG1, kappa, V domains shown)
VH: EVQLVESGGGLVQPGGSLRLSCAASGFTFSNYWMNWVRQAPGKGLEWVAAINQDGSEKYYVGSVKGRFTISRDNAKNSLYLQMNSLRVEDTAVYYCVRDYYDILTDYYIHYWYFDLWGRGTLVTVSS
VL: not shown
- binding result (recombinant human IL-6R [8]): no binding
